Read-outs that look alike come from different tables or passages of the source. Where no end group is shown, it is not given here.
Assays:
[1] = biological target: recombinant gp41 (Example 2 ELISA) (HIV-1) (UniProt P04578); experiment: ELISA, Fab titrated on immobilized gp41
[2] = biological target: IgG 4E10; experiment: Competitive ELISA (IC50): peptide competes with biotinylated 4E10-epitope peptide for IgG 4E10; format: binding, human
Experimental: IC50, were determined by competitive ELISA using a constant concentration of biotinylated peptide and IgG with a variable concentration of gp41 peptides. Microwells were coated overnight at 4° C. with 50 μl PBS containing neutravidin (Pierce; 4 μg/ml). […] A mixture of a biotinylated 4E10-epitope peptide, […](biotin)-NH2 (SEQ ID NO: 88) (20 nM), IgG 4E10 (0.2 nM), and the competing peptide analog (3-fold dilution series starting at 10 μM) in 0.4% non-fat dry milk, 0.02% Tween and PBS was incubated in a separate 96-well plate at 37° C. for 2 hours. After washing the blocked plate, the mixture of 4E10, biotinylated peptide and competing peptide was added to the wells. After 20 minutes at room temperature, the Wells were washed five times, and a 1:500 dilution of goat anti-human IgG F(ab′)2 HRP conjugate (Pierce) was added. Following incubation at RT for 40 minutes, the wells were washed five times, and developed by adding 50 μl of TMB solution (Pierce) according to the manufacturer's instructions. After ˜20 minutes, wells containing TMB solution were stopped by adding 50 μl of H2SO4 (2M) and the O.D. at 450 nm was read on a microplate reader (Molecular Devices). The concentration of competitor peptide corresponding to a half-maximal signal (IC50) was determined by interpolation of the resulting binding curve. Each peptide competitor was tested in duplicate in at least two separate experiments.
IC50s were determined by competitive ELISA using a constant concentration of biotinylated peptide and IgG with a variable concentration of gp41 peptides. Microwells were coated overnight at 4° C. with 50 μl PBS containing neutravidin (Pierce; 4 μg/ml). […] Meanwhile, a mixture of a biotinylated 4E10-peptide epitope, […](biotin)-NH2 (SEQ ID NO: 88), (20 nM), IgG 4E10 (0.2 nM), and the competing peptide analogue (3-fold dilution series starting at 10 μM) in 0.4% NFDM, 0.02% Tween and PBS was incubated in a separate 96-well plate at 37° C. for 2 h. After washing the blocked plate, the mixture of 4E10, biotinylated peptide and competing peptide was added to the wells. After 20 min at room temperature, the wells were washed five times, and a 1:500 dilution of goat anti-human IgG F(ab′)2 HRP conjugate (Pierce) was added. Following incubation at RT for 40 min, the wells were washed five times, and developed by adding 50 μl of H2SO4 (2 M), and the O.D. at 450 nm was read on a microplate reader (Molecular Devices). The concentration of competitor peptide corresponding to a half-maximal signal (IC50) was determined by interpolation of the resulting binding curve. Each peptide competitor was tested in duplicate in at least two separate experiments.

[3] = Circular dichroism spectroscopy of free peptides in solution (helicity); format: physicochemical; settings: FIG. 48
Experimental: To determine whether the imposed constraints increased the helicity of the peptides, each one was analyzed in solution using circular dichroism (CD) spectroscopy (FIG. 48). An Aviv spectropolarimeter Model 203-02 was used, with cells of 0.1 cm in length, a wavelength step of 0.5 nm and a bandwidth of 1.0 nm. One to three scans were reported. The exact peptide concentrations were determined by UV measurements at 280 nm on a Gison UV detector, model 116.

[4] = biological target: peptide 104-2, NWFc(CITO)WLWKKKK-NH2; experiment: surface plasmon resonance and ELISA
[5] = biological target: peptide 33-1, NWFDITN-Aib-LWRR-NH2; experiment: surface plasmon resonance and ELISA
[6] = biological target: peptide 94-1, …-NH2; experiment: surface plasmon resonance and ELISA
[7] = biological target: peptide 104-2, NWFc(CITO)WLWKKKK-NH2; experiment: surface plasmon resonance and ELISA (Table 7)
[8] = biological target: peptide 94-1, …-NH2; experiment: surface plasmon resonance and ELISA (Table 7)
[9] = biological target: recombinant gp41 (Example 2 ELISA) (HIV-1) (UniProt P04578); experiment: direct ELISA, antigen coated on wells, 4E10 at 5 µg/ml
[10] = biological target: recombinant IgG1(kappa) 4E10; experiment: competitive ELISA: gp41 against biotinylated …(biotin)-NH2 for IgG 4E10
[11] = biological target: recombinant IgG1(kappa) 4E10; experiment: competitive ELISA; converted by the filing on the assumption of 25 kDa and a monomer
[12] = biological target: Fab 4E10; experiment: SPR (Biacore 2000), Fab 4E10 on CM5 chip, peptide in flow
[13] = biological target: recombinant IgG1(kappa) 4E10; experiment: competitive ELISA: peptide against biotinylated …(biotin)-NH2 (20 nM) for IgG 4E10 (0.2 nM)
[14] = biological target: recombinant IgG1(kappa) 4E10; experiment: cell-based or functional assay
[15] = biological target: recombinant IgG1(kappa) 4E10; experiment: competitive ELISA for IgG 4E10
[16] = biological target: Fab 4E10; experiment: SPR (Biacore 2000), Fab 4E10 on CM5 chip, peptide in flow; remark: listed apart in the source
[17] = biological target: recombinant IgG1(kappa) 4E10; experiment: competitive ELISA: peptide against biotinylated …(biotin)-NH2 for IgG 4E10
[18] = biological target: recombinant IgG1(kappa) 4E10; experiment: competitive ELISA, reference peptide of the alanine scan

Chain of Fab 4E10 (heavy, as listed by the source): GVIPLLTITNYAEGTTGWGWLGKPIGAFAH
Chain of recombinant IgG1(kappa) 4E10 (heavy, as listed by the source): as above

Molecule Fab 2F5 has an EC50 (read off the curve) [1] of 0.03 µg/mL.

In the case of NWFDITNWLWYIKBKBKK-NH2 [Peptide 119], the “IC50 (4E10 binding, competitive ELISA)” value [2] is reported as “the same IC50”, the IC50 ([2]; Table 6, constrained analogs, 4E10 binding, read-out: IC50) is reported as 10 nM and the “helicity in solution by CD” value [3] is reported as “more helical 94-1”.

In the case of recombinant IgG1(kappa) 4E10 (antibody), the fold higher affinity than for the original peptide KGND [4] is reported as 1000 fold, the fold higher affinity than for the original peptide KGND [5] is reported as 1000 fold and the fold higher affinity than for the original peptide KGND [6] is reported as 1000 fold. It also gave a fold higher affinity than for peptide 33-1 [7] of 17 fold, a fold higher affinity than for peptide 33-1 [8] of 17 fold and a fold higher affinity than for the synthetic peptide (KGND) [9] of 4 fold.

“recombinant gp41 (residues 541-682 of HxB2; Viral Therapeutics, Inc.) (from UniProt P04578 541-682)” gave an IC50 [10] of 0.25 µg/mL and an IC50 [11] of 10 nM.

With NWFDITNWLWKKKK-NH2 [peptide 84-1, …-NH2] the Kd [12] was 100 nM and the IC50 [13] was 40 nM.

In the case of NWFDITNWLWYIKKKK-NH2 [peptide 94-1, …-NH2], the inhibition of 4E10 neutralization of replication competent HIV-1 SF162 and JR-CSF (TZM-bl cells, luciferase) [14] is reported as 30 µg/mL, the fold improvement of IC50 compared to KGND [15] is reported as greater than 1000 fold and the fold improvement of IC50 over the starting peptide (84-1) [15] is reported as 4 fold. For the same molecule, the Kd [12] was 18 nM, the Kd [16] was 20 nM and the koff [16] was 0.0138 s⁻¹. It also gave a kon [16] of 691000 M⁻¹ s⁻¹ and an IC50 [17] of 10 nM.

SLWNWFDITNWLWYIKKKK-NH2 [peptide …-NH2] showed an IC50 [18] of 10 nM.

From patent US20110124842A1 (priority 2003, published 2011)
